Measurements from PMC6684372.

How the values were obtained:
Assay in all cases: EMSA
[1] = target: UV-DDB (DDB1-DDB2 heterodimer) (Homo sapiens) (UniProt Q16531+Q92466); conditions: N at position 20 of strand 1 = tetrahydrofuran (abasic analog), opposite T
OGG1 = OGG1 (Homo sapiens, UniProt O15527 1-345)
[2] = target: UV-DDB (DDB1-DDB2 heterodimer) (Homo sapiens, UniProt Q16531;Q92466 1-1140;1-427)
UV-DDB (DDB1-DDB2 heterodimer), sequence (Q16531 whole entry, chain 1 of 2): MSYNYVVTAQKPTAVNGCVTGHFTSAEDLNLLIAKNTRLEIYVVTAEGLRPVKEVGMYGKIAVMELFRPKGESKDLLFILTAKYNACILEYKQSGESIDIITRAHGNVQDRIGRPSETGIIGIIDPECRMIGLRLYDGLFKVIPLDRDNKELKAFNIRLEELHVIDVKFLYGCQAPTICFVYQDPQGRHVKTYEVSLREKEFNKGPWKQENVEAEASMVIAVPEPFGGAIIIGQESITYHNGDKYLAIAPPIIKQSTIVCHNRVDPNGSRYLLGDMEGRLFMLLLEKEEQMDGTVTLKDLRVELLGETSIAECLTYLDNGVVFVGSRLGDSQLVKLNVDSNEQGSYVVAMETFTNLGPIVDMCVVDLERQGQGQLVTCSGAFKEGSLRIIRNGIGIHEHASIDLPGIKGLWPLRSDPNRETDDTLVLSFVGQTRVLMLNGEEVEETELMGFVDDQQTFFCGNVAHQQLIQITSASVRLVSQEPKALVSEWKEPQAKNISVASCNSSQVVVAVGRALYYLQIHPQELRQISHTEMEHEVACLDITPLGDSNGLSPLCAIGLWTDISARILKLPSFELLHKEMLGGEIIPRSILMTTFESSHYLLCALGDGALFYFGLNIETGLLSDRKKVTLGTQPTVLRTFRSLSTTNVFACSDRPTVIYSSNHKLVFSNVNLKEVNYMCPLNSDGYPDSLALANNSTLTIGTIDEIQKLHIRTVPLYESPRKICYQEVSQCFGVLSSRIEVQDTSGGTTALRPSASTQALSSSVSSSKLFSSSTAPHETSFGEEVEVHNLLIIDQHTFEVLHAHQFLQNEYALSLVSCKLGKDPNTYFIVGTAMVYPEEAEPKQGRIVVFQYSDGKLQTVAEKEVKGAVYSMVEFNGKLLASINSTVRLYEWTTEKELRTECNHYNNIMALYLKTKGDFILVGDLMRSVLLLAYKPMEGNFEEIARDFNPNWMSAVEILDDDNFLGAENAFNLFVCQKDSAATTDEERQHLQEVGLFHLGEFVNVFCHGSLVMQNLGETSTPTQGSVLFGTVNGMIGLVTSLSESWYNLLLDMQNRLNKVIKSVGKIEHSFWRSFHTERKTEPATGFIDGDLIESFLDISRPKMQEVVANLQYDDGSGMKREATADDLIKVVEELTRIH
UV-DDB (DDB1-DDB2 heterodimer), sequence (Q92466 whole entry, chain 2 of 2): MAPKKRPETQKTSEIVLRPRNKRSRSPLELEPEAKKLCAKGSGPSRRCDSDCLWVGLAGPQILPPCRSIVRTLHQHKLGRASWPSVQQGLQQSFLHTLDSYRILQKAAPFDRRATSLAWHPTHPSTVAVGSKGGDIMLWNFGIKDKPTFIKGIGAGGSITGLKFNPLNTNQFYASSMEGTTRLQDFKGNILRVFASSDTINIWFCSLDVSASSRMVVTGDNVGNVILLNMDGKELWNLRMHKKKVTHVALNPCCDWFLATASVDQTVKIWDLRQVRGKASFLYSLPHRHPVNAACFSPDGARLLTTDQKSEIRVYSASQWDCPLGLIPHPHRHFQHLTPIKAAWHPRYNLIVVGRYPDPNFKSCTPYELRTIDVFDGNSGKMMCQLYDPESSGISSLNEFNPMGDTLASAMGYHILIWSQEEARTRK

OGG1, sequence (O15527 whole entry): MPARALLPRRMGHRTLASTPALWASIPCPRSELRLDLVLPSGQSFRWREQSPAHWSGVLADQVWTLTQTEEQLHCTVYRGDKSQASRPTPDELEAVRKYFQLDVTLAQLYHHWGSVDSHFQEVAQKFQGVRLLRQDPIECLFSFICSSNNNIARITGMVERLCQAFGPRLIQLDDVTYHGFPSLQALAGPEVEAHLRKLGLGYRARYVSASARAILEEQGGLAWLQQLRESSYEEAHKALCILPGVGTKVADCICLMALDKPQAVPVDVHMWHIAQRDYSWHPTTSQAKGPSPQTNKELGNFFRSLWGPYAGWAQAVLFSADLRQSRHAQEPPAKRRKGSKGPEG
UV-DDB (DDB1-DDB2 heterodimer) (Homo sapiens), sequence (Q16531 whole entry, chain 1 of 2): as the sequence (Q16531 whole entry, chain 1 of 2) above
UV-DDB (DDB1-DDB2 heterodimer) (Homo sapiens), sequence (Q92466 whole entry, chain 2 of 2): as the sequence (Q92466 whole entry, chain 2 of 2) above

Molecule	Kd [1]	binding signal (OGG1)	Kd [2]
CCGAGTCATTCCTGCAGCGNGTCCATGGGAGTCAAAT / ATTTGACTCCCATGGACTCGCTGCAGGAATGACTCGG [THF37]	3.9 nM		
8-oxoG37(G:C) (dsDNA, 8-oxoG at position 21 of strand 1 (printed as Z), opposite C) DNA 1: CCGAGTCATTCCTGCAGCGAGTCCATGGGAGTCAAAT DNA 2: ATTTGACTCCCATGGACTCGCTGCAGGAATGACTCGG		~3 fold lower affinity than THF37	160 ± 12.4 nM
UD37 (dsDNA) DNA 1: CCGAGTCATTCCTGCAGCGAGTCCATGGGAGTCAAAT DNA 2: ATTTGACTCCCATGGACTCGCTGCAGGAATGACTCGG			1110 ± 95.5 nM
8-oxoG37(G:A) (dsDNA, 8-oxoG at position 21 of strand 1 (printed as Z), opposite A) DNA 1: CCGAGTCATTCCTGCAGCGAGTCCATGGGAGTCAAAT DNA 2: ATTTGACTCCCATGGAATCGCTGCAGGAATGACTCGG			164 ± 14.8 nM
